Data set [1] concerns MS2 coat protein. Put plainly: apparent KD of MS2 coat protein, switch ON state; designed switch direction (-1 OFF switch, 1 ON switch): -1; higher = weaker reporter binding. The conditions noted are these: FMN input: 0 or 200 uM; Eterna round: R93 (includes R88 designs). An outline of the steps: (§1)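 Normalised binding curves from single clusters were fitted, and the median fit for each design is given as apparent KD. The clusters held designed RNA switches transcribed on-chip from Illumina sequencing clusters. These were titrated with SNAP-549-labelled MS2 coat protein (twofold steps from 0.7 or 1.5 nM to 3 µM, 0.8–1.5 h to 10–20 min per step) in 100 mM Tris-HCl pH 7.5, 80 mM KCl, 4 mM MgCl2, without or with constant ligand.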

Data set [2] has as its system MS2 coat protein. Kind of data set: apparent KD of MS2 coat protein, switch OFF state (with FMN for OFF switches, without FMN for ON switches); designed switch direction (-1 OFF switch, 1 ON switch): -1; higher = weaker reporter binding. The conditions noted are these: FMN input: 0 or 200 uM; Eterna round: R93 (includes R88 designs). An outline of the steps: as §1

On to “AACAGUACAGGAUAUACAUGAGGAUCACCCAUGUGAAAAUAAAGUGGCGUACCACGAAGUAGAAGGGUACUGGA [Ruby 58]”, for which the results for the “apparent KD of MS2 coat protein” value in data set [1] and in data set [2] were 21.1 nM and 72.5 nM, respectively.
As for “AAAAAACAUGAGGAUCACCCAUGUGAGGAUAUGUAAAAUAAAAUAAAAAUAAAAAAAAGCAGAAGGUAUAUGAA [Amethyst 66]”, the “apparent KD of MS2 coat protein” value in data set [1] is 31.4 nM; in data set [2], 40.6 nM.
Regarding “AGGGAGUGAGGAUAUACGAAAAAAAAAGAAGGAAAAAAAGAGUAGAAGGCACAUGAGGAUCACCCAUGUAAGAA [milkweed 13]”, the “apparent KD of MS2 coat protein” value in data set [1] is 35.8 nM; in data set [2], 26 nM.
Turning to “GAAAAAGGAGGAUAUACGUACAUGUCAAAAGACGUGAAGGGACAUGAGGAUCACCCAUGUAGAAGGCUUAAAAG [Mat - Exclusion 2 - JL mod - D95]”, the “apparent KD of MS2 coat protein” value in data set [1] came to 59.4 nM; in data set [2] it was 21.4 nM.
As to “AAAAAACAUGAGGAUCACCCAUGUGAGGAUAUCGGAAACAAAAAAAACAAAAACAAAACGAGAAGGCACAAAAA [Amethyst 32]”, the “apparent KD of MS2 coat protein” value in data set [1] came to 72.4 nM; in data set [2], 26.6 nM.
For the sequence “AAAGUGUAAGGAUAUCUGAAAGGACACGAAAGUGACAAAGAAGAGAAGGUACAUGAGGAUCACCCAUGUAAAAA [milkweed 21]”, the “apparent KD of MS2 coat protein” value is 28.7 nM in data set [1] and 18.1 nM in data set [2].
Consider “AAGAUGUCAGGAUAUGCUGCUCGUCACGAAAGUGAUGAGUAGCAGAAGGGACAUGAGGAUCACCCAUGUAAAGA [Exclusion 4.1c (Exclusion4-cac2 - mutated U at 5)]”, for which the results for the “apparent KD of MS2 coat protein” value in data set [1] and in data set [2] were 112 nM and 140 nM, respectively.
Take “GGAAAACAUGAGGAUCACCCAUGUGAGGAUAUCGAUGUCCAAAAAAAAGUGCGGGACUCGAGAAGGCACUUGGA [salish99-ex1-31]”: the “apparent KD of MS2 coat protein” value was 48.2 nM in data set [1] and 32.5 nM in data set [2].
For “GGAAAACAUGAGGAUCACCCAUGUAAGGAUAUGCAAAAAAAAAAAAGGAUAUAGAAGGGCAGAAGGUACAAAGG [salish99-ex1-30]”, the “apparent KD of MS2 coat protein” value in data set [1] was determined as 23.3 nM; in data set [2] it was 36.1 nM.
For “AGAAAACAUGAGGAUCACCCAUGUCAGGAUAUGUAAAAGAAAAGAAAAGAAAGAAGAAACAGAAGGGACAAGAA [Seth-Peribsen]” the same measures were 56.9 nM and 53.7 nM.
In the case of “CUCAAGUUAGGAUAUCGAAGAAAAGAAGAGAAAGAAAAGAACGAGAAGGAACAUGAGGAUCACCCAUGUAAGAA [EteRNA is fun!]”, the “apparent KD of MS2 coat protein” value in data set [1] is 11.8 nM; in data set [2] it was 21.7 nM.
With “GCUUGCCAAGGAUAUACAUGAGGAUCACCCAUGUGAGAGAAAAAAGUGAGAAAGAAAAGUAGAAGGUGGUGAGG [salish99-ex3-110]”, the “apparent KD of MS2 coat protein” value in data set [1] worked out at 26.4 nM; in data set [2], 120 nM.
For “AACGUACAUGAGGAUCACCCAUGUUAGGAUAUGCCGGGUUAGAGCCAACUAAAAAACCGUAGAAGGGACGAAAA [Bilbo Confounded 11 - Jieux - Exclusion 1]”, in that order: 27.6 nM and 30.2 nM.
For “AACAUGUAAGGAUAUCUAAGAAAAGAAAAGAAAGAAAAGAAAGAGAAGGUACAUGAGGAUCACCCAUGUAAGAA [EteRNA is fun!]”, in that order: 32.7 nM and 18.3 nM.
For “AGCUAGGUAGGAUAUACGUAAAUGUCGAAAGACGUAUUGGGACAUGAGGAUCACCCAUGUAGAAGGAUCUAGCA [it's a mod mod mod world 3]”, in that order: 38.8 nM and 178 nM.
For the sequence “AGGGAGUAAGGAUAUGAGAAAGAAAAAGAAGGAAAAAAAGAUCAGAAGGUACAUGAGGAUCACCCAUGUAAAAA [milkweed 9]”, the “apparent KD of MS2 coat protein” value stood at 35.6 nM in data set [1] and 26 nM in data set [2].
For “AAAGGACGAGGAUAUACAUGAGGAUCACCCAUGUAAAAAACAUAAGAAAAGAAGUUAUGUAGAAGGCGUCCAAA [69%, Moding Meechl, 13]” the same measures were 16.4 nM and 17.3 nM.
For “UAGAACCUAGGAUAUACUUGGGUCACUAAUUUACUGAUAUAACAUGAGGAUCACCCAUGUAGAAGGAGGAGUAA [JR_Exc002_Sub203]” the same measures were 45.2 nM and 26.7 nM.
In the case of “AAAAAGGCAGGAUAUACAAAACAGGGAAACCUGAAAAGGAAACAUGAGGAUCACCCAUGUAGAAGGGCCAAGAA [Clint Eastwood]”, the “apparent KD of MS2 coat protein” value was 31 nM in data set [1] and 30.9 nM in data set [2].
As to “AGUUGGCGAGGAUAUACAUGAGGAUCACCCAUGUGAGAGAAAAAAGUGAGAAAGAAAAGUAGAAGGCGCUGACA [salish99-ex3-05]”, the “apparent KD of MS2 coat protein” value came out at 49.2 nM in data set [1] and 202 nM in data set [2].
Consider “AAAAAGUGAGGAUAUGUCAAAAGUCACAAAAGUGACAAAAGACAGAAGGCACAUGAGGAUCACCCAUGUGGAAA [Mod of Eli - Late G + early G segment 2]”, for which the “apparent KD of MS2 coat protein” value in data set [1] was found to be 32.1 nM; in data set [2] it was 28.6 nM.
On to “AAGUUGGUAGGAUAUACGUGCAAUUGGUGUGUCCGGAAAAAACAUGAGGAUCACCCAUGUAGAAGGACCAAAAA [Quonmabi]”, for which the “apparent KD of MS2 coat protein” value in data set [1] turned out to be 47.5 nM; in data set [2] it was 36.3 nM.
Turning to “AAGAACUCAGGAUAUACAAAAUAAAAGAAAAGAAAGAAAGAACAUGAGGAUCACCCAUGUAGAAGGGAGAAGAA [Sobekkare Sobekneferu]”, the entries for the “apparent KD of MS2 coat protein” value in data set [1] and in data set [2] were 61.2 nM and 32.4 nM, respectively.
As for “AAGACUACAGGAUAUACAUGAGGAUCACCCAUGUAACUGACAAGCAGAGUACGGAGAAGUAGAAGGGUAGUCAA [Ruby 33]”, the “apparent KD of MS2 coat protein” value in data set [1] came out at 20.3 nM; in data set [2], 30.1 nM.
For “AAAAAGUCAGGAUAUGUACAAAAUAAAAUAAAAAUAAAAGUACAGAAGGGACAUGAGGAUCACCCAUGUAAAAA [Ex 4 May 11]”, in that order: 38.6 nM and 36.6 nM.
As to “AAACCACAUGAGGAUCACCCAUGUGAGGAUAUGAACGAAAUAAAAUAAAAAAUAAAGUUCAGAAGGCACAAAAA [Mat - Exclusion 1 - Eli mod - D15]”, the “apparent KD of MS2 coat protein” value was 17.6 nM in data set [1] and 22.9 nM in data set [2].
With “CUUAUGUGAGGAUAUGUACAGAAAAAACUGGGUGUAACUGUACAGAAGGCACAUGAGGAUCACCCAUGUAAAAA [EX4 387: S S Pseudoknot 12]”, the “apparent KD of MS2 coat protein” value was 36.4 nM in data set [1] and 31 nM in data set [2].
Consider “CUCUUGUGAGGAUAUCAAAGAAAAGAAAAGAAAGAAAAGAAUGAGAAGGCACAUGAGGAUCACCCAUGUAAGAA [EteRNA is fun!]”, for which the “apparent KD of MS2 coat protein” value in data set [1] was 36.4 nM; in data set [2], 59.5 nM.
For the sequence “GUGUACAGAGGAUAUACAUAAGCUAGGAAACUAGCAAGAUCACAUGAGGAUCACCCAUGUAGAAGGCUGUACAC [Ex2: 739]”, the “apparent KD of MS2 coat protein” value is 270 nM in data set [1] and 327 nM in data set [2].
Regarding “CUCAUGUGAGGAUAUCAGUAGUAAAAAAAUAAAAUUACUACUGAGAAGGCACAUGAGGAUCACCCAUGUGUCUU [EX4 331: Super Stable 31]”, the figures for the “apparent KD of MS2 coat protein” value in data set [1] and in data set [2] were 45.8 nM and 27.2 nM, respectively.
Regarding “AAAGUGCAAGGAUAUAUAUGAAAAGUUACGAAAGUAACAAAACAUGAGGAUCACCCAUGUAGAAGGUGCACAAA [Seclusion (MS2 riboswitches - Exlclusion 2)]”, the “apparent KD of MS2 coat protein” value was 24.6 nM in data set [1] and 18.3 nM in data set [2].
As to “AAAACACAUGAGGAUCACCCAUGUGAGGAUAUGCUAUGGAAAAUAAAAAUAAAACAUAGCAGAAGGCACAAAAA [Denovo 12]”, the “apparent KD of MS2 coat protein” value was determined as 20.3 nM in data set [1] and 32.3 nM in data set [2].
For “UGUGAACAUGAGGAUCACCCAUGUGAGGAUAUACGAGCGUGAGAAAGAUAAAACGAGCGUAGAAGGCACAAGAA [JR_Exclusion1_Sub5]” the same measures were 43.3 nM and 57.5 nM.
In the case of “AAAAAAGGAGGAUAUACGUACAUGUCAAAAGACGUGAAGGGACAUGAGGAUCACCCAUGUAGAAGGUUUAAAAA [JL Wide Open 31]”, the “apparent KD of MS2 coat protein” value in data set [1] worked out at 49.1 nM; in data set [2], 18.3 nM.
For the sequence “AAAAGCUCAGGAUAUACGGUCUGUUGUUGAGAAAUAAAAAAACAUGAGGAUCACCCAUGUAGAAGGGAGCGAAA [Exclusion2-cac3]”, the “apparent KD of MS2 coat protein” value turned out to be 44.4 nM in data set [1] and 111 nM in data set [2].
For “AAGAAUGUAGGAUAUACAAGGAAGAAAGAAAAGAAAAGAAAACAUGAGGAUCACCCAUGUAGAAGGACAUAGAA [EteRNA is fun!]”, in that order: 23.6 nM and 18.2 nM.
“GGAAAACAUGAGGAUCACCCAUGUAAGGAUAUGCUAAAAAAGGAAAAAAACCCACCAGGCAGAAGGUACUAAAG [Janelle Amethyst 18 Mod 3 - Jieux - Exclusion 1]”: the figures for the “apparent KD of MS2 coat protein” value in data set [1] and in data set [2] were 22.7 nM and 53.2 nM, respectively.
For “ACAGCUGAAGGAUAUACUUGGGAAAAAAAAAAAAAAAAAAAACAUGAGGAUCACCCAUGUAGAAGGUCAGCUGA [Brourd - Exclusion 2 - Sub 1]” the same measures were 82.2 nM and 43.5 nM.
Take “GAAAAGUGAGGAUAUUCGGAUAGGAAAACGAAAACCUAUCCGAAGAAGGCACAUGAGGAUCACCCAUGUGAAAA [Mat - Exaclusion 4 - Eli mod - D44]”: the “apparent KD of MS2 coat protein” value in data set [1] was 22.4 nM; in data set [2] it was 26.8 nM.
